Experimental data from IntAct's records for PubMed 11847120.

B1: POU domain, class 2, transcription factor 1 (Homo sapiens), P14859-1 (parent)
chain: MNNPSETSKPSMESGDGNTGTQTNGLDFQKQPVPVGGAISTAQAQAFLGHLHQVQLAGTSLQAAAQSLNVQSKSNEESGDSQQPSQPSQQPSVQAAIPQTQLMLAGGQITGLTLTPAQQQLLLQQAQAQAQLLAAAVQQHSASQQHSAAGATISASAATPMTQIPLSQPIQIAQDLQQLQQLQQQNLNLQQFVLVHPTTNLQPAQFIISQTPQGQQGLLQAQNLLTQLPQQSQANLLQSQPSITLTSQPATPTRTIAATPIQTLPQSQSTPKRIDTPSLEEPSDLEELEQFAKTFKQRRIKLGFTQGDVGLAMGKLYGNDFSQTTISRFEALNLSFKNMCKLKPLLEKWLNDAENLSSDSSLSSPSALNSPGIEGLSRRRKKRTSIETNIRVALEKSFLENQKPTSEEITMIADQLNMEKEVIRVWFCNRRQKEKRINPPSSGGTSSSPIKAIFPSPTSLVATTPSLVTSSAATTLTVSPVLPLTSAAVTNLSVTGTSDTTSNNTATVISTAPPASSAVTSPSLSPSPSASASTSEASSASETSTTQTTSTPLSSPLGTSQVMVTASGLQTAAAAALQGAAQLPANASLAAMAAAAGLNPSLMAPSQFAAGGALLSLNPGTLSGALSPALMSNSTLATIQALASGGSLPITSLDATGNLVFANAGGAPNIVTAPLFLNPQNLSLLTSNPVSLVSAAAASAGNSAPVASLHATSTSAESIQNSLFTVASASGAASTTTTASKAQ
partner: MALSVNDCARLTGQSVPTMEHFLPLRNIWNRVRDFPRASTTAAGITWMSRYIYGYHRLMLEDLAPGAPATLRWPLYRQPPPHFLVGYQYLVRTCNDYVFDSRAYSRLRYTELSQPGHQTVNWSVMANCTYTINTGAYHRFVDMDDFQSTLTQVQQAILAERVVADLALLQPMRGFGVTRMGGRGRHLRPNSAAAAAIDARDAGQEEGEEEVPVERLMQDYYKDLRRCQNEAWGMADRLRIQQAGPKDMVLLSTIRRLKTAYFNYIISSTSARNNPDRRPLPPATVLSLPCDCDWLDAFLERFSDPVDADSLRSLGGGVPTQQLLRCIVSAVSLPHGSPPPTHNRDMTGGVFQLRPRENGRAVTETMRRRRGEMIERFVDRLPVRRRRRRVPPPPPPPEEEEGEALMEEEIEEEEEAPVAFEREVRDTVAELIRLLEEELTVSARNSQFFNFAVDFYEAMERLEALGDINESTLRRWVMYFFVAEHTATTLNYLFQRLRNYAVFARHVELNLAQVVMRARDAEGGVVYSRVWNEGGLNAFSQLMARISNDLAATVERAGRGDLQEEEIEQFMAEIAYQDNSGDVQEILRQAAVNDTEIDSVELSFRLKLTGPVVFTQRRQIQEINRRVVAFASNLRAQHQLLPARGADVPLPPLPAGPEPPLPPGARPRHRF

Variants of: B1
Conditions: with term_ade05 PTP

Q: How did the “effect of a mutation on the interaction” value turn out when N429D was run?
A: Its value is “disrupting interaction strength”.

Q: Which “effect of a mutation on the interaction” value does the source give for S377G;K420E here?
A: The value was “disrupting interaction strength”.

Q: Which “effect of a mutation on the interaction” value does the source give for Q415L;C428S here?
A: Its value is “decreasing interaction strength”.

Q: E419G;K433E was tested. Which “effect of a mutation on the interaction” value did it give?
A: The value was “decreasing interaction strength”.

Q: How did the “effect of a mutation on the interaction” value turn out when E408G was run?
A: The value was “decreasing interaction strength”.

Q: With K403Q;R424S as the variant, how does the “effect of a mutation on the interaction” value read?
A: Its value is “decreasing interaction strength”.

Q: Which “effect of a mutation on the interaction” value does the source give for K382E;L394S here?
A: Its value is “decreasing interaction strength”.

Q: R431S was tested. Which “effect of a mutation on the interaction” value did it give?
A: Its value is “decreasing interaction strength”.

Q: With D414G;V425G as the variant, how does the “effect of a mutation on the interaction” value read?
A: The value was “disrupting interaction strength”.

Q: How did the “effect of a mutation on the interaction” value turn out when E400G;M418L was run?
A: Its value is “decreasing interaction strength”.

Q: With I412F;V425D as the variant, how does the “effect of a mutation on the interaction” value read?
A: Its value is “decreasing interaction strength”.

Q: Which “effect of a mutation on the interaction” value does the source give for R383S here?
A: Its value is “decreasing interaction strength”.

Q: For T410S, which “effect of a mutation on the interaction” value is on record?
A: The value was “decreasing interaction strength”.

Q: Which “effect of a mutation on the interaction” value does the source give for F427Y here?
A: Its value is “disrupting interaction strength”.

Q: How did the “effect of a mutation on the interaction” value turn out when T384P was run?
A: The value was “disrupting interaction strength”.

Q: For T384S, which “effect of a mutation on the interaction” value is on record?
A: The value was “decreasing interaction strength”.

Q: How did the “effect of a mutation on the interaction” value turn out when V425G was run?
A: The value was “disrupting interaction strength”.

Q: With K382T as the variant, how does the “effect of a mutation on the interaction” value read?
A: Its value is “decreasing interaction strength”.

Q: Which “effect of a mutation on the interaction” value does the source give for R380W here?
A: Its value is “disrupting interaction strength”.

Q: With K403M as the variant, how does the “effect of a mutation on the interaction” value read?
A: The value was “disrupting interaction strength”.

Q: Which “effect of a mutation on the interaction” value does the source give for K403E here?
A: The value was “decreasing interaction strength”.

Q: I373T;V425A was tested. Which “effect of a mutation on the interaction” value did it give?
A: The value was “decreasing interaction strength”.

Q: How did the “effect of a mutation on the interaction” value turn out when C428Y was run?
A: The value was “disrupting interaction strength”.
